The values below come from the DeepSol protein solubility set.

This series is described as follows: soluble on expression in E. coli; label from the status in PepcDB or PDB records.
For “MIKSALLVLEDGTQFHGRAIGAEGTAVGEVVFNTSMTGYQEILTDPSYSRQIVTLTYPHIGNVGTNASDEESSAVHAQGLVIRDLPLIASNYRNEEGLSEYLKRHNIVAIADIDTRKLTRLLREKGAQNGCIIVGELSDAALALEKAKAFPGLKGMDLAKEVTTKEMYQWLQGSWTLEGDLPAAKQPEDLPFHVVAYDYGVKRNILRMLVDRGCRLTVVPAQTPAEDVLKLNPDGIFLSNGPGDPEPCDYAITAIKRFLETDIPVFGICLGHQLLALASGAKTVKMKFGHHGGNHPVKDLDASCVMITAQNHGFAVDETSLPSNLRTTHVSLFDGSLQGLHRTDKAAFSFQGHPEASPGPHDAAPLFDHFIELIEAYRASSVSLNCSNSHK”, the “soluble on expression in E. coli” value is listed as “not soluble”.

For “MGSDKIHHHHHHMASVMSNNNNNNNNNNASYMFTNPLSNTGGGLINEIKDAINEMEQLKVLELKQICKSLDLSITGKKAVLQDRIKQFLRKSCDIGHIDPWRPKAIKILIAKVRINSSLPKYSTLWETLKTGAFKHPVASGQLPVTALQSTALPPYSQQQALAYSFTSPFYKPIVQIPDANKKLKQSAGRGCTKMKFKVSKSNHDLLKSNKSYKLYLFSGFSIPFIYETVGHEAIDFPYPCELVFNGTKLEDNVKGLKKQNGTGNPANLTPYLKVPTEMNHLDLHYLNIDKEYSISCFIVEVFSPEALLGKILKRPKIIKQATTAYIKRTLNEQDDDDIITTSTVLSLQCPISCTRMKYPAKTDQCKHIQCFDALWFLHSQSQVPTWQCPICQHPIKFDQLKISEFVDNIIQNCNEDVEQVEISVDGSWKPIHNSSAVITDTVNQNHSVKNENQGTVKQEQDYDSRNAFDTNLRNGSNHNEPEIISLDSSDDEAFIPASKSFPTHVNPRNDQLRADIFPSESEGSSDYNPNHTSTPKGSPTMDQDNYQDAFQMRSFLNQGATTNINDTPTNNSSINSFVTATNGDSRIFYNRGPSTPLLPAVLQNLTNQTEAQRNPYGPNYNTTAQDRNLLGIEGDLPPIPPVDPNSEAETELPTRTTSAAHLPPYIHVSTSGHGDDGKIRKRRHSNVSIYIPKNPYATLMKRRPQANHAIMNKTLAQTNDFNTSAQDNSEVVDLTSD”, the “soluble on expression in E. coli” value is “not soluble”.

Turning to “RREMTSYSDIDLILLHPEGSIPSGLEHFWYPIWDAKIRLDYTVRTPKECADMISAEPTAALALLDISHCSGDPQLTATTRCVVLEQWRRELKKNFNDVTDTAIARWNRSGSVVDMTHPDLKHGRGGLRDIELIRALALGNLCDKRPLGEERQLLLNIRTMLHQHAGRARDVLDPEFAVDVALDLGCEDRYDLSRSLAKAARTIDDATNAALSTARNLLPRRSSVRKAVRRPVDIDVVEVDGTLALSRTPNLEDPSLVLRVAAASARTGMTISESAWKQLETVPSMPPT”, the “soluble on expression in E. coli” value is given as “not soluble”.

As to “MINKTQARRHKRKYKYRSKGNHSRSLLGMHTSPANSSMSQAIYSNDSLTTTDGVLGDESLSSETSIVSFTGENANKQKRQRLSESTENSIPEPAFLRSNVTSLTTSESDDIQQFFLENESLFQIEYKIDYKNYRDYTIVPSFGTVIPKSKCEIALICRPTGKSESDQMTISYKTVDSDNDLANGCFSEMEKIVIDIKGRSQESPIHSIPSSSGSSSTSSPSAKRRNIVDSDSD”, the “soluble on expression in E. coli” value is on record as “not soluble”.

With “MKSKFMIHQIFSNYCSKNTRLHTLLYKTFVRPILEYGTEVSSPLKKQDIKAIESVQNSFTRKLYSRQKGKYIRTDDPDYKSAIQRNELFNLSTLEARRKAIDKVFLSKMLVNKVDIDTDQFFKIDKNSKTRTKTKFIWGKCKTKLRRHFFTNRVLSSIKISAMNLILAPHVLCMFNTFTHYSSP”, the “soluble on expression in E. coli” value was “not soluble”.

Take “MGSDKIHHHHHHMTTTPLPTFSDDQAQAHDRIAEVLRDMGVDIDDDTLVPAKDTKSAVLAVTGKAGSGKTLLLAELVKALERTGVEIVSGDWEGKRRKDRRTVAVLAPTNKAASVLRNRGVPATTIHRILYTPMYDPEFEKVAEWLAGQGERPSIEALTDAAMDRAKEVYETTKSVPAALASAGLRGSDFITGWKRREDGLDIGLVDESSMLDDKQFQDLKEIFPTLVLFGDPAQLAPVGQSGEMIFDRFKGDNLLHLGRVHRQDADNPILDLAHALGDPQLEFRDFEQMIEDAAARDDRVVVSPRANSDMMARSPVLVWRNATRIRLIAAFRAAFGAGDDEILPGEPLICDGIELPLKHRKKRIDLEARGLIKGAPVVYLGPGNKPGFSRLHVMGAETPRFSAASIVKIEKPGEEEPFLPYAARMGAAFLHGAAVTMHKAQGSQWPEVQVFSPDLYAASRAGRMEAGQALWKRLAYVAITRAEERLFWVTRYMLSRPVHDLSTDDLTVKAAPLELEAEEDADTSTM”: the “soluble on expression in E. coli” value is “not soluble”.

On to “MNPLERKVKQEAEEDGYSSFDEFPAGAIRIPYEELMAKVRAKKAEAEAAQDLVNENSFDQFVAAPPAPPVQKPAVEPSPSCSPETVAVQKFVTEFMQAAGGSRELRIIKDSQETKIVWKTSPAKPKAPPVEDDPTDPTDSQVSTVSSIIPVSSPRGKRRIVVSSDKDSDGDETPTEDNVNNDDQDVTPKKNRKPPVEVVTPSPAKRLRGLNLRSAHSSSDSESDFQDTQCEDSQDSDYFPDTQEQRDRPADFRIPKNAAYDPLDLSYN”, for which the “soluble on expression in E. coli” value was “not soluble”.

Turning to “MTDVEKPVDNSGTLIDDILSPLKGVNEDLNVLVLGGDKVNNNTDTMMLVNFKPSTSKVSILSIPRDTKVKINGKKAKINSAYPTGGGELAVQTVSELFGIDVKYYVFVDTSSFRKIIDILGGVDYYVPVDMDYDDPLQGLSIHIKKGQHHFDGAMAEKFMRFRQYNNGRVNEYYDGSDLKRIDAQQNFIRELVRQKLNIFYLTKVDDIASTIFSNIDTNLNMSEVLKLTGSVSKVQADSINMLKVPGKSVLDGAWYYVIDSQETDKIINEYFRTRYKLEHHHHHH”, the “soluble on expression in E. coli” value was “soluble”.

Consider “MGSDKIHHHHHHMERDMICTPISYQNKTSAQTFSNFLKHTRTENNLSQEDLCGLLRQKSCLFDTLDSITISRWERGVNIPSLAKQSEIVEIFGSELFDIYREDKKFINEGLALINLFESNIERSDHPYYRNTPYRVEFIESHHHNFMALLQLSLVYESNPRLSFVSRNLSQPFFHGLSLVVAFSSGDQIVGHSLFCRSQGKIALEFMNDEVDLFEVINHNSQALPDTLMVFSSFGVTPYIENYMMSVYLNELAASRSLKFLSFNICDESLKRKLTQFKLPIFKVRTIEGCCKPIKNYSFFSSRTEVMANRNLLKLSVIPSSKSQTIDPIFFMQLETPI”, for which the “soluble on expression in E. coli” value is given as “not soluble”.

Regarding “MSASPLQITEKSPEMSQTPPKDENNELEFGIPTKRSRSGRPKKICAFSSFKCYEERDIEFFIHQVSDNQIIWDRRNSLNFDGNLVHATFDKIEICCQFLARKNGENASRLWTELASEYKREKARIEQLPSGIYSEEFEIRFPFMQQMWFLEIEASELKEADSNSLEETIVNFARQKSINDAPSPSSSLSAPIEHLNSSINRLIAVIDKKSEDTTKRQIPAKYSDIVEHLIGFLDKTPRERQMEVKCKIYNFLDTIN”, the “soluble on expression in E. coli” value was “not soluble”.

“NDDIIVNWVNETLREAEKSSSISSFKDPKISTSLPVLDLIDAIQPGSINYDLLKTENLNDDEKLNNAKYAISMARKIGARVYALPEDLVEVNPKMVMTVFACLMGKGMKRV”: the “soluble on expression in E. coli” value is “soluble”.

For the sequence “MMRWIRHMFAPSAHRSFPPRSMDSIAAAIAASEQLHTGQVMVAVEADLSAAALWRGHGARQRAEQAFAQLRTWDTEANNGVLIYLLLADHAIEVVADRGLRALVPDAAWAEVCRRMQQFLRDGQHEAAVLAGVEAVTELLCAHFPAAAQAQHEDELPNRPHILGLEHHHHHH”, the “soluble on expression in E. coli” value is “soluble”.

Regarding “MGSDKIHHHHHHMFDTLASLGRDLQARETLNACLDRVFRDVCAQGFQSLVYDYAPVPLSMEGALITPSVFLQRNAPDDMHNVWCEHGYYQNDPVQQRATRRTTPFVWSYRTEGRTEGRTEGVEYVGDQHRQVTRYLCDSDMGTGVTVPLHLPGGAFATFSAAVNATQAEAPRLAEAQLPPFLLLAHAFQARAQELLDPQERRCHHIALTRRERECLQYSAKGMTAKSIAATLNRSTATVNLHLNSAARKLGARNRVEAVVRGMHYRLLEL”, the “soluble on expression in E. coli” value is on record as “not soluble”.

“MGSDKIHHHHHHMALPSLNGMRAFEAAARLGSIKDAAEELHLTPSAISRHIRALERNLGQDLFERGFRQITPTIRGSYYARSLSEAFEAIWRATDDVSLADGPSHGRTQRVRVLCVPAVLNLWLADRLPNFRRLHPAVELEISTSGKRANFDLAIVDEFVYKAGPALTLLIPLVLTPVCAPSLLDGPVPLRSPADLVNHHLIHECESMRWKRWLEQEGVLDTTPKSSTTLDDCTLIMREAINGAGIALADTMMAQDFLQQGKLVAPFPARHTYPAGIYLHQRRSIGNKPGTGLFQDWLLSEVEDHKRVMAIA”: the “soluble on expression in E. coli” value is on record as “not soluble”.
